Experimental findings from the supplement of paper PMC12764529 are described below.

± gives the half width of the 95% confidence interval. Where only a bound is given, the exact number is not on record here.

The nature of series [1]: folding stability dG unfold (combined trypsin and chymotrypsin); higher = more stable. In a few lines:
(§1)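 How resistant each design was to proteolysis was captured as K50, inferred by Bayesian fitting of sequencing counts. Unfolding free energy was then derived relative to a sequence-predicted unfolded-state K50 and a shared folded-state K50, per protease or combined. Digestion used trypsin and chymotrypsin at 11 threefold-diluted concentrations plus a no-protease condition, on mini-proteins under 80 residues without cysteine in a PA-tagged cDNA display construct. Designs were kept only when AlphaFold2 dimer inter-PAE was above 15.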

Series [2] is described as follows: folding stability dG unfold from trypsin proteolysis; higher = more stable. As to the method: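 Folding stability of de novo designed mini-proteins (<80 aa, no Cys; designed by TrROS, TrMRF, ProteinMPNN and the joint model) was measured by cDNA display proteolysis with trypsin and chymotrypsin. Each protease was used at 11 concentrations in a threefold dilution series plus a no-protease condition. K50 was inferred by Bayesian fitting of sequencing counts, and dG unfold was derived against a sequence-predicted unfolded-state K50 (Tsuboyama et al. method). Sequences shown include variable-length N-terminal GS-type padding (SAGGSAGG...) inside a display construct carrying a PA tag. Rows were kept only if the AF2 dimer inter-PAE was >15, to exclude likely homo-oligomers.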

A short description of series [3]: folding stability dG unfold from chymotrypsin proteolysis; higher = more stable. The method in brief:
as §1

“KTIEIMIPMEQMRNNKPIPADQFLKELAQEFGGPNVKPKVEPMPDNMMKATITLPNGRKIEITDPGAIKIKS [r1_168_TrROS]”: the “folding stability dG unfold” value is < -1 kcal/mol in series [1] and -0.43 ± 0.57 kcal/mol in series [2]. As for “MEEVTIEIEVKGLSEEEIKELAEKLAEELREAGYEVEITKVEVLPDGSVKVTIKVRKGMSEEELKKLLEKLS [r1_485_TrROS_Hall]”, in series [2], the “folding stability dG unfold” value amounted to 3.65 ± 0.36 kcal/mol. Consider “SADFKPEGPSNNALVWKNPNSGKMFMIYPSDDNIEVQEIEYDPGNNKPEPETERVPLPEDDRDDLKDLLSAG [r14_245_TrROS]”, for which the “folding stability dG unfold” value in series [1] is < -1 kcal/mol; in series [2], -0.663 ± 0.14 kcal/mol. The corresponding values for “SAGAGTVASPEEAEELVEELRAALPPEATITRDPTPEGGVRFTVRLPGEGRVLEMEFDPARDTTARRPESAG [r5_358_JUSTAS]” are < -1 kcal/mol and -0.391 ± 0.083 kcal/mol. In the same order, the values of “SAGGEPIKIKIDSVQEQPNPDGGPYLYVKITYPDGGRQTGMFDSPEDFKSQLEGEPGFKKIEIEPIRSAGGS [r16_757_TrROS]” are < -1 kcal/mol and -0.839 ± 0.52 kcal/mol. The corresponding values for “SAGGGAEEEAKKIAEELEKIGGVKKVEVEVKPKPDDSVEVKVKVEFEPPKPPKPPVVELPENGELVFKSAGG [r13_957_TrMRF]” are < -1 kcal/mol and -0.0749 ± 0.21 kcal/mol. In the case of “SAGGGKIVFTEGYLLAEFPPTDLRVARPIPPDRPELALEEVADAFIAEMEAEFGFPPPEDVRVEVLASAGGS [r8_402_TrMRF]”, the “folding stability dG unfold” value is -0.0645 ± 0.2 kcal/mol in series [1] and 0.28 ± 0.058 kcal/mol in series [2]. In the same order, the values of “SAGGGMVERTETVTVPLSDVLAGRPPTPEAIAAARFPDTAEVTLETTEVPEDDTVTVTLTVRVPPELLSAGG [r13_862_JUSTAS]” are -0.0656 ± 0.21 kcal/mol and 0.472 ± 0.069 kcal/mol. In the same order, the values of “SAGGKVEIYNPNGQWKEITPEDLEGLKPGTIWQMPNGPVMIEIPGNDETIPIPMDSPNDIKDAIKDALSAGG [r13_962_TrROS]” are -0.183 ± 0.18 kcal/mol and 0.246 ± 0.066 kcal/mol. The corresponding values for “SAGGMTIVKPSDGTPQFIEDEEAEKLVKELEEKGLLKKEKPGDITIPLPTVDPVTGKPRTTTITILPESSAG [r5_243_JUSTAS]” are < -1 kcal/mol and -0.962 ± 0.14 kcal/mol.

For “SAGGMVEIDPNPRVITVTDPSSSKVTKLNLPFPPDEVEKVTVLPDGTIAVYVPATGETIEVPLSELGSAGGS [r16_410_JUSTAS]”, the results for the “folding stability dG unfold” value in series [1] and in series [2] were -0.774 ± 0.33 kcal/mol and -0.136 ± 0.22 kcal/mol, respectively. The corresponding values for “SAGGMVTVERGPENRVITITLPPSVPEKVDELAAKLGTDYVTTEPLPEGDLVRYTIYVPGDNPALLESAGGS [r16_479_JUSTAS]” are -0.948 ± 0.41 kcal/mol and 0.0152 ± 0.12 kcal/mol. In the case of “SAGGMVVRTPDGSTVEITVTDPASGSPYRSTDPGGGVEAAIAAINASPAYPNATVSITRYDAGTASPASAGG [r13_914_JUSTAS]”, the “folding stability dG unfold” value in series [1] is -0.485 ± 0.16 kcal/mol; in series [2], -0.286 ± 0.1 kcal/mol.

Regarding “SAGGNWRPVERPIPIEPGMPPEEFIDEIADELPPGWRIDKPEPHPDNNYFKITVYDPNDGNQVEILFSAGGS [r16_250_TrROS]”, the “folding stability dG unfold” value in series [1] came out at 0.122 ± 0.25 kcal/mol; in series [2] it was 0.363 ± 0.15 kcal/mol.

Turning to “SAGGPKLYIMIPPELRDNFPDIEIRPVEIPDDNIEIEIKFPGKKVTFPIYIFDPDGKIVEPQTITIEPSAGG [r13_129_TrROS]”, the “folding stability dG unfold” value is 0.226 ± 0.27 kcal/mol in series [1] and 0.501 ± 0.076 kcal/mol in series [2]. The corresponding values for “SAGGPSAENLVEGDKVLLLIPLGDGPERRLELPLPDGRPVVVEVEPDRPGLITVTIPETGKPIVLPLSAGGS [r16_198_TrMRF]” are < -1 kcal/mol and -0.489 ± 0.086 kcal/mol.

Regarding “SAGGSAEEKAKAIKEELEKKGEVKKVTVTIEPTPENSTKVTVEIEKEPKPKPKEYKYTELPNGKKVILSAGG [r13_957_JUSTAS]”, the “folding stability dG unfold” value in series [1] was < -1 kcal/mol; in series [2] it was -0.416 ± 0.12 kcal/mol. In the same order, the values of “SAGGSAEKPTATLRPVVLNYPEGPISRDPSGNVVNSPEELAKEVKEEILKKTGLPVEEIVVLVEPPSAGGSA [r15_415_JUSTAS]” are < -1 kcal/mol and -0.739 ± 0.061 kcal/mol. In the same order, the values of “SAGGSAGGAEELAEELERALPEGEVTEVRVEVVELPEGEPEVVVTVRVKRDGKEVKELPVIRVPSAGGSAGG [r6_630_TrROS_Hall]” are -0.997 ± 0.44 kcal/mol and -0.492 ± 0.16 kcal/mol. In the same order, the values of “SAGGSAGGAVPSYIKDIETIPETSALIVNAESEEIVKEFLEKLGLKIESKEVDEDKIILPAKIESAGGSAGG [r6_381_JUSTAS]” are 0.0269 ± 0.35 kcal/mol and 0.774 ± 0.099 kcal/mol. In the case of “SAGGSAGGEKKYEVVEKKELTLEDIEKADEILVVGKDGKVFKSRDDVKAAAEKGEKITVYVVKKSAGGSAGG [r6_827_TrROS_Hall]”, the “folding stability dG unfold” value in series [1] was < -1 kcal/mol; in series [2], 0.0471 ± 0.46 kcal/mol. In the same order, the values of “SAGGSAGGEPITPEEAREIADYFMEEHGAKEVEVKVDPNGGIIKIDVTHPNDGRKYEREIQIEKSAGGSAGG [r6_550_TrROS]” are < -1 kcal/mol and 0.142 ± 0.13 kcal/mol. With “SAGGSWIPVEEIAENFPNVEVNTHPNGNIMVRFTHKRKKPNGGKKKHNMTVQLDPEDGRLQSIHPYSAGGSA [r2_104_TrROS]”, the “folding stability dG unfold” value in series [2] is -0.0297 ± 0.48 kcal/mol. Regarding “SKPGDKLEEVTIKIYNPGNGRPREITIEKHEDGWRAQVMNPPGQTKEIPPNDTLEDLLNLPPNYYIEIIPSA [r9_781_TrROS]”, the “folding stability dG unfold” value in series [2] is -0.271 ± 0.2 kcal/mol.

In the case of “SMKTYTFTDPNNGIKYTITIDPNKPLVNVTVTKPGGEPVETQTVSVAPGKINLSLNVDGKPISISISLPESA [r9_385_JUSTAS]”, the “folding stability dG unfold” value came out at 5.29 ± 0.15 kcal/mol in series [3] and 5.37 ± 0.2 kcal/mol in series [1]. In the same order, the values of “SMSIKRARLRPEEIEAEIAALEAQGLRVKREPLEVTPVEVPLKLPDGTPRRVEVVEVVFRLELTPLDQPPSA [r9_991_JUSTAS]” are -0.433 ± 0.48 kcal/mol and < -1 kcal/mol. The corresponding values for “SMTPEVSVITLRPVEVKKVGEVPVVTLEVTEVENAPEELLEKVKAGAKLTIEVPKDEPIEPDEEIEVVLPSA [r9_557_JUSTAS]” are 0.146 ± 0.1 kcal/mol and -0.706 ± 0.27 kcal/mol.

Consider “SMVYVPEKNVIIEESEKLFYDPNKPRDLRVKTTPVIEVSPSGEKKTLKTEITFYNPEGNPIFTEESEIEISA [r9_383_JUSTAS]”, for which the figures for the “folding stability dG unfold” value in series [3] and in series [1] were -0.399 ± 0.22 kcal/mol and < -1 kcal/mol, respectively. The corresponding values for “SSAEEIARRLAEELNLDRVEVRVERLRLEPAEAPEEVRVVRPAPPPPPVTEEERRRRPEERRRRLSEEELSA [r9_724_TrROS_Hall]” are -0.262 ± 0.32 kcal/mol and < -1 kcal/mol. The corresponding values for “SSPVVVSESTDPNSSTKTITVTLPPNARVTLTLPGEPVETRPQPDATATLTTGPDALDITIEPLPPGVPLSA [r9_221_JUSTAS]” are 0.474 ± 0.1 kcal/mol and -0.714 ± 0.24 kcal/mol. The corresponding values for “SSTTPYGDKTVVTTTTPVPGAGKELVTTTTYTFTPDPNSASTSTTATTTTTVTPLPEEAPTPEAVALRRASA [r9_363_JUSTAS]” are -0.937 ± 0.44 kcal/mol and < -1 kcal/mol.

Consider “SVIIKGPGPETYYVEKFGNETKITKFSTEGDKFYKKEYYETFDPNNKTVSRKENEVEEIEPEEEKPFSELSA [r9_83_JUSTAS]”, for which the “folding stability dG unfold” value stood at 0.546 ± 0.11 kcal/mol in series [3] and 0.0208 ± 0.11 kcal/mol in series [1]. In the same order, the values of “VSPLDLEGPGGLPPSELRRVSVLREETDPSVGEKRLSPVGTLFVPKDTSPEEVEAIIAARPDITRVEVRLLS [r1_132_JUSTAS]” are 0.502 ± 0.067 kcal/mol and 0.0944 ± 0.082 kcal/mol.
